The target of assay [1] is JR-FL.v6 V3 peptide (HIV-1 clade B isolate JR-FL). Description: SPR.
Assay [2] has the same target. Description: differential scanning fluorimetry. On the technique in general: In DSF a fluorescence change marks the thermal transition of the protein.

pKd: −log10 of the molar value.

Regarding 19b antigen-binding fragment (Fab), the pKd (commonly the Kd on a negative log10 scale, so that one unit is a factor of ten) in assay [1] was 8.76. The increase of the transition temperature of the Fab when bound to the peptide in assay [2] came to 6.3 °C.
